Experimental findings from paper PMC9335323, “Single crystal spectroscopy and multiple structures from one crystal (MSOX) define catalysis in copper nitrite reductases” (Proceedings of the National Academy of Sciences of the …, 2022) are described below.

The target of one series is T1, Br2DNiR (Bradyrhizobium sp. ORS 375, UniProt H0SLX7).
T1 construct: gene nirK; two-domain enzyme, recombinant in E. coli with 6xHis tag cleaved by TEV; Cu-loaded T1 and T2 sites; CuNiR homotrimer, site at interface of two monomers
T1 sequence (H0SLX7 25-364): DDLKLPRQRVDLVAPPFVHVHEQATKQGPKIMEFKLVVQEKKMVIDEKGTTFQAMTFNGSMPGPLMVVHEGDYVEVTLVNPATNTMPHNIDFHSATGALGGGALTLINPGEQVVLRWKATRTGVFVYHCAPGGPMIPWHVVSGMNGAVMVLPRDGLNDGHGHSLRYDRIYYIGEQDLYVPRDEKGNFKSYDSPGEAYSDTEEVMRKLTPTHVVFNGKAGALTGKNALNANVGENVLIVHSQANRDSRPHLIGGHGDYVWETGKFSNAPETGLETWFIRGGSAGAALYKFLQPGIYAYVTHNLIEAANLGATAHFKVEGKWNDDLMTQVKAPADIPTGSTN
Put plainly: X-ray crystal structure (MSOX, nitrite-soaked crystal, DS1 […] Å). Type of series: binding. The settings on record: 200 mM NaNO2 soak, pH 5.5, 100 K; side-on at type-2 Cu, full occupancy.

The subject of another series is O=NO. Nature of the series: purified protein. The settings on record: conditions in supplement only.

With `O=NO` [nitrite], on Br2DNiR, the “X-ray crystal structure (MSOX, nitrite-soaked crystal, DS1 1.19 Å)” value is on record as “full occupancy nitrite is seen bound to fully occupied T2Cu in a “side-on” orientation”.
Usually Km stands for the substrate concentration at which the rate is half of its maximum. What is called kcat is the number of substrate molecules converted per active site and unit of time at saturation. For the compound Br2DNiR (Bradyrhizobium sp. ORS 375), in the series on O=NO, the Michaelis-Menten constant (Km) was 7.4 ± 1.2 µM and the catalytic constant (kcat) turned out to be 9 ± 0.5 s⁻¹.
